Measured values as given in paper PMC8939794.

Target: His6-Tagged vimentin (Novus Biologicals) (UniProt P08670)
Experiment: MST; His6-vimentin labelled with RED-tris-NTA 2nd Generation dye, kept at 20 nM; V-domain protein titrated from 40 uM to 0.117 uM; premium capillaries, Monolith NT.115 Pico, 20% excitation power; 'estimated' Kd

UniProt P08670, sequence (P08670 whole entry): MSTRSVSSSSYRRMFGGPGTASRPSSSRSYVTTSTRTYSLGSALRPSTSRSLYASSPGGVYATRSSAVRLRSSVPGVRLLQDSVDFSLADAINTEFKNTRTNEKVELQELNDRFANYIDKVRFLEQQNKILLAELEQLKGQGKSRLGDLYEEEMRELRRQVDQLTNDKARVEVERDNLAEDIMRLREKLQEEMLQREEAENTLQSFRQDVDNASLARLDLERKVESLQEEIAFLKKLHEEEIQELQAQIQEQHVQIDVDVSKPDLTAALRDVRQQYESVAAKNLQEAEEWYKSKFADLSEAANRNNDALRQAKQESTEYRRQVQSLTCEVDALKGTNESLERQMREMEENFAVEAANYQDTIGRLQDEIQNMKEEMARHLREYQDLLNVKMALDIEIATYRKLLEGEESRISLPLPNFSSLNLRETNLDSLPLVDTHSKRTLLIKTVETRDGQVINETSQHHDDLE

Substance	Kd
BspC Gating Loop Mutant (GLM) V-domain, A250P/A259P (domain or fragment)	41.9 µM
BspC V-domain (variable domain of Group B streptococcal surface protein C, strain COH1) (domain or fragment)	7.14 µM
